{"source": "the nanobody polyreactivity screen of Harvey et al. (2022)", "data": [{"experiment": "yeast display, Sf9 membrane polyspecificity reagent, FACS + sequencing; frameworks hold sequencing errors", "in_short": "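Synthetic nanobody libraries on Saccharomyces cerevisiae BJ5465 were galactose-induced for 36–48 hours, stained 1 hour at 4 °C with 10% biotinylated, detergent-solubilized Sf9 membrane reagent and enriched on streptavidin microbeads. FACS then separated cells into low and high (top ~1%) gates by anti-HA (expression) and streptavidin (reagent binding) fluorescence. Genes were colony-PCR amplified, MiSeq 2 × 250 sequenced and CDR-length filtered. A clone's polyreactivity label is that of its gate of origin.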", "values": [{"sequence": "QVQLVESGGGLVQAGGSLRLSCAASGRSFCTYAMGSYRQAPGKERELVAAITSGGSTNYADSVKGRFTISRDNAKNTVYLQMNSLKPEDTAVYYCAAVEYLRESDYWGQCTQVTVSS", "polyreactivity (PSR sort gate)": "low polyreactivity"}, {"sequence": "QVQLVESGGGLVQAGGSLRLSCAASGRSFGHYAMGWYRQAPGKERELVAAITTGGNTYYADSVKGRFTISRDNAKNTVYLQMNSLKPEDTAVYYCAKRGYPYKYKYWQVYAAYDYWGQGTQVTVSS", "polyreactivity (PSR sort gate)": "low polyreactivity"}, {"sequence": "QVQLVESGGGLVQAGGSLRLSCAASGRSFGKNAMGWYRQAPGKERELVAAISTSGGRTYYADSVKGRFTISRDNAKITFFLQMNSLKPEDTAVYYCNAKGWTRPPGYDYWGQGTQVTVSS", "polyreactivity (PSR sort gate)": "high polyreactivity"}, {"sequence": "QVQLVESGGGLVQAGGSLRLSCAASGRSFGVYAMGWYRQAPGKERELVAVISSGGSTTYADSVKGRFTISRDNAKNTVYLQMNSLKPEDTAVYYCAAVSYRRHFGPYNYWGQGTQVTVSS", "polyreactivity (PSR sort gate)": "low polyreactivity"}, {"sequence": "QVQLVESGGGLVQAGGSLRLSCAASGRSFKRYDMGGYIQAPGKERELVAAITGTGGSTYYADSVKGRFTISRDNAKNTVYLQMNSLKPEDPADYYCAARLYNTYSGFAFGYWGQGTQVTVSS", "polyreactivity (PSR sort gate)": "high polyreactivity"}, {"sequence": "QVQLVESGGGLVQAGGSLRLSCAASGRSFSYAMGWYRQAPGKERELVAAISYGGGGTYYADSVKGRFTISRDNAKNTVYLQMNSLKPEDTAVYYCNARQYRPWYPPYGYDYWGQGTQVTVSS", "polyreactivity (PSR sort gate)": "low polyreactivity"}, {"sequence": "QVQLVESGGGLVQAGGSLRLSCAASGRSFYTNVMGWYRQAPGKERELVAAISSAGTTYYADSVKGRFTISRDNAKNTVYLQMNSLKPVDSEVYYCAADQVAYYGFDYWGQGTQVTVST", "polyreactivity (PSR sort gate)": "low polyreactivity"}, {"sequence": "QVQLVESGGGLVQAGGSLRLSCAASGRSLRYYAMGWYRQAPGKERELVAVITRDGSTYYADSVKGRFTIPRDNAKNTVYLQMNSLKPEDTAVSYCVYGLTYRSFYYWGQGTQVTVSS", "polyreactivity (PSR sort gate)": "high polyreactivity"}, {"sequence": "QVQLVESGGGLVQAGGSLRLSCAASGRSNAMGWYRQAPGKERELVAAISTNGGSTYYADSVKGRFTISRDNAKNTVYLQMNSLKPEDTAVYYCAKRLGRDYTFGYWGQGTQVTVSS", "polyreactivity (PSR sort gate)": "high polyreactivity"}, {"sequence": "QVQLVESGGGLVQAGGSLRLSCAASGRSSTRNAMGWYRQAPGKERELVAAITRSGGGTYYADSVKGRFTISRDNAKNTVYLQMNSLKPEDTAVYYCAADQLSPSDGYEYWGQGTQVTVSS", "polyreactivity (PSR sort gate)": "low polyreactivity"}, {"sequence": "QVQLVESGGGLVQAGGSLRLSCAASGRTCFPYAMGWYRQAPGKERELVDAISSGGRTNYADSVKGRFTISRDNAKNTVYLQMNSLKPEDTAVYYCAARGYLRLYSYDYWGQGTQVTVSS", "polyreactivity (PSR sort gate)": "high polyreactivity"}, {"sequence": "QVQLVESGGGLVQAGGSLRLSCAASGRTCGYYAMGWYRQAPGKEREFVAVITWSGDSTYYADSVKGRFTISRDNAKNTVYLQMNSLKPEDTAVYNGNADSGNAGTAYDDYDYSGQGTQVTVSS", "polyreactivity (PSR sort gate)": "low polyreactivity"}, {"sequence": "QVQLVESGGGLVQAGGSLRLSCAASGRTCPRYGLGWYRQAPGKERELVATIRTGGRTNYADSVKGRFTISRDNAKNTVYLQMNSLKPEDTAVYYCATDSSKHPYSPTLLKFDYWGQGTQVTVSS", "polyreactivity (PSR sort gate)": "low polyreactivity"}, {"sequence": "QVQLVESGGGLVQAGGSLRLSCAASGRTDVAKGMGRYRQAPGKEKEMVAAINDGDVTYYADSVKGRFTISRDNAKNTVYLQMNSLKPEDTAVYYCAADIIYGYEVYTYTSDYWGQGTQVTVSS", "polyreactivity (PSR sort gate)": "low polyreactivity"}, {"sequence": "QVQLVESGGGLVQAGGSLRLSCAASGRTFAAYAMGWYRPAPGKERELVAGITSSSVRTYYADSVKGRFTISRDNAKNTVYLQMNSLKPEDTAVYYRTARADGSSSRWRPYSKFYYWGQGTQVTVSS", "polyreactivity (PSR sort gate)": "low polyreactivity"}, {"sequence": "QVQLVESGGGLVQAGGSLRLSCAASGRTFADYAMGWNRQAPGKEREFVAAITYSGGSTYYADSVKGRFTISRDNAKNTVYLQMNSLKPEDTAVYYCNARPGSSYWYDAQWGEYGYWGQGTQVTVSS", "polyreactivity (PSR sort gate)": "high polyreactivity"}]}]}
